The record followed here is patent US20040248254A1.

In the assay the target is IL-1Rrp1 and mouse ACPL polypeptide coexpressed in transfected cells (IL-18 receptor) (mouse). The assay can be described thus: cell-based or functional assay.
Chain of IL-1Rrp1 and mouse ACPL polypeptide coexpressed in transfected cells (IL-18 receptor) (mouse) (Q9Z2B1 15-614): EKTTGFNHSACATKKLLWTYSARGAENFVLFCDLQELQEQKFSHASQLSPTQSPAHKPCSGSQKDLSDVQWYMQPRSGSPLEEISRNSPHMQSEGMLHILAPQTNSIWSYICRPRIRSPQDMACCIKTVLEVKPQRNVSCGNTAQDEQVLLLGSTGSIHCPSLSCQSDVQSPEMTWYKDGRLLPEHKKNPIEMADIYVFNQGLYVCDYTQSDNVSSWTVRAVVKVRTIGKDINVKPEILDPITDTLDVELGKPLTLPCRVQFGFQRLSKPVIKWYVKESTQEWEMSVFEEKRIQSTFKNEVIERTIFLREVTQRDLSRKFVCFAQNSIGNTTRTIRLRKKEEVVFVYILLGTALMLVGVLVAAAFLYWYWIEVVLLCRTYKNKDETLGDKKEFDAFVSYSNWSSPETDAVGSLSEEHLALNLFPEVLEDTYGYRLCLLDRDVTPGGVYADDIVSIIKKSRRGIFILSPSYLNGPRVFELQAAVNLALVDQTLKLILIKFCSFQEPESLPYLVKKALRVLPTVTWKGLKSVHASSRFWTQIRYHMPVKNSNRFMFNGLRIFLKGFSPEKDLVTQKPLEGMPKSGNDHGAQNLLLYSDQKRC

“murine IL-18 (PeproTech) (from UniProt P70380 36-192) (ligand)” showed an induction of the NFkB-linked gene (NFkB-Luc luciferase reporter) in COS cells of 10 fold and an induction of the NFkB-linked gene (NFkB-Luc luciferase reporter) in S49 cells of 300 fold.
